Test results taken from the supplement of paper PMC10567573.

B1: TOR1AIP2 (parent)
chain: DGAGRTWQDSDTVKLLVDLELSYG
B2: ZBTB22 (parent)
chain: HTGLKPYECGVCAKKFMWRDSFMR

Variants of: B1
Assay: protein stability index of a GFP-peptide fusion (GPS, HEK-293T) (PSI 1-6); higher = more stable
Settings: c terminus: a fixed tail appended
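Further: lentivirally expressed fusions sorted by FACS into six bins by GFP to DsRed ratio, PSI derived from sequencing read proportions per bin multiplied by bin number.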

Protein stability index of substitutions, site by site:
Y23: T 2.56, R 2.15, S 1.56, N 1.45, M 5.21, K 3.9
G24: I 3.44, Q 2.53, T 1.73, S 2.51, N 1.26, E 1.71, K 2.88, A 2.47, P 2.77, D 1.8

Variants of: B2
Assay: as above
Settings: c terminus: a fixed tail appended

Protein stability index of substitutions, site by site:
D20: Q 1.74, L 2.27, S 2.08, G 3.52, Y 2.74, C 3.48, V 1.69, K 3.45, A 2.16, N 2.48, I 2.1, P 1.72, H 2.65, F 2.08
G3: C 2.47, L 1.69, S 2.62, E 3.34, K 2.3, P 4.19, I 2.91, Q 1.52, D 1.36, V 3.07, N 3.32, A 2.15
R24: K 1.71, S 2.96, T 3.9, M 3.19, W 1.67, I 1.79, Q 1.6, V 2.82, N 3.03, F 2.3, C 2.94, D 1.37, H 3.35, L 3.44, G 1.87
K14: P 1.21, A 1.26, F 1.99, L 1.82, Y 3.07, T 2.19, Q 2.53, D 1.91, C 2.55, W 2.78, E 1.9, I 1.66
K15: N 2.26, H 3.5, R 2.86, S 2.12, T 1.61, Y 2.76, F 2, G 2.95, C 2.1, D 2.52, L 1.52, M 2.88, I 1.77, V 1.77, W 1.79
V11: R 1.75, L 1.85, E 2.09, P 3.87, T 1.83, Q 1.8, G 1.25, F 2.4, I 3.5, K 2.98, N 1.37, Y 2.59, H 2.37
F22: W 1.53, H 1.45, K 2.54, D 3.47, N 1.49, A 1.79, R 1.56, P 2.07, L 2.46, C 2.21, Q 3.48, S 1.66, T 1.74, Y 1.89
A13: W 3.78, M 3.7, I 2.5, L 2.64, K 1.22, F 3.02, H 2.56, E 1.56, Q 1.55
R19: A 2.81, F 1.55, M 2.01, K 2.88, S 2.12, D 1.88, E 1.58, Q 2.03, H 2.12, W 1.77, Y 2.06, N 2.29, I 1.71, C 1.59, L 2.82, P 4.1
T2: F 4.25, P 2.72, R 2.38, K 2.14, E 2.67, D 3.09, N 2.28, C 3.8, Y 2.79, G 1.74, M 1.17
C9: I 1.98, S 1.42, H 1.48, T 1.78, M 2.58, D 1.85, P 2.65, G 2.23, A 1.46, R 1.8, Q 1.65, L 2.75, V 2.02, N 2.26, W 2.35, K 2.22
M17: W 2.45, T 3.13, A 2.39, I 2.8, R 1.39, C 2.27, P 2.35, L 2.18, Q 1.64, F 3.05, S 1.9, D 1.84, K 1.27, Y 1.53
H1: I 2.85, C 1.3, Q 2.71, S 1.92, F 1.76, T 2.24, D 1.45, A 3.04
P6: Q 2.26, K 3.36, R 2.1, L 2.99, D 1.82, E 2.97, V 1.1, Y 2.11, M 2.6, H 2.3, A 3.44, S 2.62, N 1.65, T 2.99, I 1.45, F 2.28
M23: F 2.41, P 2.28, K 1.92, I 1.88, R 2.64, L 1.85, H 2.79, S 2.46, Y 2.82, E 4.04, G 1.69, N 2.22, W 2.22, T 2.71, A 3.12, V 1.96
G10: L 2.17, Q 2.19, N 2.62, P 1.92, A 2.82, R 2.01, M 1.64, T 1.84, V 4.2, K 2.19, C 2.58, S 1.47, F 2.12, E 2.44, D 1.98, Y 3.51
F16: V 1.95, C 2.57, Y 3.36, I 1.6, D 2.45, S 3.33, Q 2.16, N 1.39, A 1.1, H 1.6, M 2.46, R 2.1, P 3, E 1.31, K 1.32
K5: D 3.82, I 2.05, R 2.38, F 2.66, S 1.96, L 1.92, C 2.43, P 1.62, M 2.73
L4: F 2.27, H 2.07, G 1.92, Y 3.37, M 1.93, A 1.62, I 2.75, E 1.86, D 2.32, N 1.37, S 4.46, V 3.58
E8: P 2.59, C 1.96, T 2.61, D 2.94, I 2.78, L 1.49, Y 1.3, M 2.26, F 2.2
W18: D 2.09, E 2.75, V 2.43, A 1.06, K 1.75, M 1.78, S 1.52, C 1.85, Y 3, T 1.68, N 1.61, H 2.81, L 3.88, P 2.88, R 2.05
C12: K 2.58, A 1.62, S 2.56, N 2.56, E 3.07, D 1.12, I 3.24, W 3.06, P 1.73, G 3.24, Y 2.91, T 2.56
Y7: Q 1.77, F 2.27, V 1.67, G 2.84, I 3.53, N 2.43, T 3.12, K 3.09, C 2.68, M 2.08, A 2.64, D 1.82, S 1.97, P 1.34, L 2.73, E 1.3
S21: Q 1.83, P 3.07, L 3.24, G 2.9, N 1.49, T 1.73, E 1.78, Y 2.58, A 2.23, H 2.26, W 2.84, R 1.08, V 2.1
